In assay [1] the target is kallikrein 2 (KLK2) (UniProt P20151).
The target of assay [2] is recombinant soluble murine proADAM10 (truncated, lacking the signal peptide and the regions C-terminal of the protease domain) (murine). Briefly: SDS-PAGE with western blot + MALDI-TOF; purified recombinant proADAM10; anti-His-tag western blot and MALDI-TOF; a 100-kDa species called the proADAM10 dimer.

From article PMC3535375 come the findings set out here.

UniProt P20151, sequence (P20151 19-261): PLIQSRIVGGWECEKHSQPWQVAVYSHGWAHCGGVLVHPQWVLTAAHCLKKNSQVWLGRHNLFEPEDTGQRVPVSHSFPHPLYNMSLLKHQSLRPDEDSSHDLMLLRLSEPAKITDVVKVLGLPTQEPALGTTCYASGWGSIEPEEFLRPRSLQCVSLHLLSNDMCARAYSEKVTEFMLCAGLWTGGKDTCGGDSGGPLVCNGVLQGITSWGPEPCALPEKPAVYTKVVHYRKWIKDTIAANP

Turning to “meprin β-cleaved LEKTI 9–14 (domain or fragment)”, in assay [1], the KLK2 proteolytic activity (Z-Pyr-G-R-AMC) after incubation with meprin β-cleaved LEKTI 9–15, relative to uncleaved LEKTI 9–15 is 20%. As a reminder, the stoichiometry N is the number of molecules, sites or subunits per partner or assembly. Take “recombinant soluble murine proADAM10 (truncated, lacking the signal peptide and the regions C-terminal of the protease domain) (domain or fragment)”: the stoichiometry N in assay [2] was determined as 2.
